The nature of the data set: amyloid nucleation score (Sup35N fusion, yeast selection) (log enrichment); library NNK2; higher = more nucleation; inactive = no reads after selection. In a few lines:
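Nucleation score is defined as the DiMSum log enrichment of output over input reads, with centring on the mode score of non-aggregating sequences. A minimum of 100 input reads was required for each sequence. Reads came from Illumina sequencing of plasmid inserts from psi-negative yeast expressing Sup35N fused to peptides of 20 random codons, induced with 100 μM copper sulfate for 24 hours and grown 7 days at 30°C on medium lacking adenine and uracil.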

± gives the uncertainty stated by the source.

LYFASVNQTNSFLRIL had an amyloid nucleation score of 2.93 ± 0.073. As for FYMYAFNYYSFY, the amyloid nucleation score was found to be 2.91 ± 0.086. Substance NYSGLDERPVWVFWYLVFEY registered an amyloid nucleation score of -1.09 ± 1.1. On to DIERQAVNRPVGRLGKTEDS, for which the amyloid nucleation score was determined as 0.242 ± 0.77.

In the case of CNVSCFVRVVFKWIIS, the amyloid nucleation score worked out at 2.33 ± 0.24. Substance PKYTDCCFFNLILIGWSVFP gave an amyloid nucleation score of 5.272 ± 0.052.

Regarding YFFITYVPSEAGYRREKWFG, the amyloid nucleation score came to 7.34 ± 0.082. On to FGFWSPATVNNVRALIKDCV, for which the amyloid nucleation score was -0.409 ± 0.53.

With AFRVNWYDQNRYVEVKG, the amyloid nucleation score came to 0.292 ± 0.4. The substance WNGGQWGAWPLCSNVCAMRS showed an amyloid nucleation score of 7.7 ± 0.062.

Consider AAIRH, for which the amyloid nucleation score is -0.328 ± 0.49. Turning to DLVSLLSGVFVMFVGLCFEV, the amyloid nucleation score was -0.733 ± 1.1. Regarding GLRLFKMKDFC, the amyloid nucleation score was found to be 2.14 ± 0.21. In the case of WLFSVSISGREDMMWSGLLE, the amyloid nucleation score came to 0.061 ± 0.4. The value for HYSIIWTAS was 0.233 ± 0.46. Substance LIRFYEIFSW yielded an amyloid nucleation score of -0.237 ± 1. As to NVYIKRIWVPFSP, the amyloid nucleation score is -0.173 ± 0.36.

In turn, VYYTVVCGDDRRCIKMCKFC registered an amyloid nucleation score of 5.327 ± 0.032.

On to NLYAPGSIYSASFFRVMTLG, for which the amyloid nucleation score is -1.04 ± 0.48. Turning to FYSAVYMLFIVMWFGYSLIN, the amyloid nucleation score result was “inactive”. Substance WVWGIGSFRRSFQCWWWFSN returned an amyloid nucleation score of -1.86 ± 0.73. For the substance VMFILVYTLFP, the amyloid nucleation score was found to be 0.068 ± 0.65. NLCTVVCSDTAVLWTALPRL: the amyloid nucleation score was 9.478 ± 0.062. On to RIDVAI, for which the amyloid nucleation score was -0.457 ± 0.76. In turn, ELLQVEYNHHDSKEFMLVMI yielded an amyloid nucleation score of 0.239 ± 0.43. For the substance STNSDFLYQKNLPMVSSGNI, the amyloid nucleation score is -0.408 ± 0.79. Turning to MAKSCGRSCTCSRSKVSVGG, the amyloid nucleation score is 0.52 ± 0.57. The value for VRLHGLLHANMGKTFMLLLS was -0.486 ± 0.56. For MFVCYSRYIASEREPAACPI, the amyloid nucleation score entry is “inactive”. RLFRFPNVLHDLICNMYICA gave an amyloid nucleation score of 6.024 ± 0.049. Substance SCLLVEQLP gave an amyloid nucleation score of 0.864 ± 0.26. Turning to VWLTMKVAILPCSQRIEKMV, the amyloid nucleation score turned out to be 1.47 ± 0.38. Turning to SLLYQQDGCNLVVFYQFLV, the amyloid nucleation score came to 2.52 ± 0.13. For the substance ELTSLQVMLSNDEMMGGRVN, the amyloid nucleation score is 0.064 ± 0.3. As to MASTIWIMLVYDLNARKMHI, the amyloid nucleation score stood at 4.87 ± 0.073.

The substance YQDWGSSTLLIVIKSWAGET returned an amyloid nucleation score of -1.02 ± 0.33.

As for CLRGSR, the amyloid nucleation score was found to be 0.03 ± 0.2.

Turning to YRDRDLC, the amyloid nucleation score was -0.339 ± 0.34. As for GTSMCRELNVHNAWRGIHMG, the figure is 0.615 ± 0.29. The value for SVLSFMRYLCGWQA was 6.513 ± 0.053; that for PIRVSSSVVSWYYFGNSRIW was -1.09 ± 0.62; that for TCQPGRLALNAKERGSGDRL was 0.482 ± 0.3. For the substance DWQRRFAQIMIRGFNVILVT, the amyloid nucleation score was 0.097 ± 1.1.

In turn, IRGSSIEKNRMWHVGLSLTW returned an amyloid nucleation score of -0.809 ± 1.1. Turning to AYSGIECGVVQWSFYRRKLI, the amyloid nucleation score entry is “inactive”. In turn, RHSHRARKVGEWGNLCLVEK gave an amyloid nucleation score of 0.26 ± 0.21. Take WVFRK: the amyloid nucleation score is -0.11 ± 0.76.

In turn, VITLRGAPYTEWLLRALLAS had an amyloid nucleation score of 0.734 ± 0.81. NGDVTVMITF displayed an amyloid nucleation score of 5.463 ± 0.031. Substance QWRFGRG yielded an amyloid nucleation score of 1.16 ± 0.26. CIDVRDTWNVPSVDYSMVLY yielded an amyloid nucleation score of -0.363 ± 1.1. Substance SCSHYTVECKGAWGFCACGH registered an amyloid nucleation score of 0.085 ± 0.36. The value for TSGLAGGDWNWAS was 0.314 ± 0.64; that for TILWEVVGAL was 0.091 ± 0.17; that for CYCDSWIMAS was -1.69 ± 0.55. KRILQMDHRLLNHNSELLKR gave an amyloid nucleation score of -0.397 ± 0.45. The substance LWVVILGVGTSSNESYCKYV came in with an amyloid nucleation score of -0.427 ± 0.45. The substance TSSLDEEALS came in with an amyloid nucleation score of -0.648 ± 0.55.

These data come from the supplement of paper PMC12042874.
